Source: patent US20240010722A1 (published 2024)
Numbering of substitutions follows the chain as printed. “And” between values parts separate entries of the source, which are not always exact repeats. Equal entries are not always repeated.

T1: human MAdCAM (human, UniProt Q13477 19-317, limits assumed)
T1 construct: also called huMAdCAM; human MAdCAM-1
T1 sequence (looked up): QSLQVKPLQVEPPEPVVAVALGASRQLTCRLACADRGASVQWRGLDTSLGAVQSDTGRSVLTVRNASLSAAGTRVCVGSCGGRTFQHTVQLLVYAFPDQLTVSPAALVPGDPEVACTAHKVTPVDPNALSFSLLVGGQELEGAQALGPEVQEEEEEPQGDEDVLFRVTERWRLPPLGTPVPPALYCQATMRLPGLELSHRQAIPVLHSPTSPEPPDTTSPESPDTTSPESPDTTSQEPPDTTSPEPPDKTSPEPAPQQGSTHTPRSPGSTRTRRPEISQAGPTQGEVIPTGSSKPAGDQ

T2: mouse MAdCAM (mouse, UniProt Q61826 22-365, limits assumed)
T2 construct: also called mouse MAdCAM-1; muMAdCAM
T2 sequence (looked up): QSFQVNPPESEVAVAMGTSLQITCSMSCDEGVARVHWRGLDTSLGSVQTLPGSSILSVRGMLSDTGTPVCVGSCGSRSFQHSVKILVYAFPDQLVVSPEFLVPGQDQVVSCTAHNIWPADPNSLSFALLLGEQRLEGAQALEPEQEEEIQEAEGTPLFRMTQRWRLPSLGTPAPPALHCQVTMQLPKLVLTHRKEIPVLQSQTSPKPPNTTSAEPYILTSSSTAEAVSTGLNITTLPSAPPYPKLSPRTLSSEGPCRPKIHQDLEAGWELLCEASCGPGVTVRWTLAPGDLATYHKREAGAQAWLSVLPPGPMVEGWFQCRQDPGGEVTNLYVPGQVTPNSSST

B1: MIAB124 (antibody, V domains shown)
VH: EVQLLESGGGLVQPGGSLRLSCAASGFTFSTDAMSWVRQAPGKGLEWSAISGSGGSTYSADSVKGRFTISRDNSKNTLYLQMNSLRAEDTAVYYCARARVDWNSYNDLWGQGTLVTVSS
VL: EIVMTQSPATLSVSPGERATLSCRASQSVNNKLAWYQQKPGQAPRLLIYAASTRATGIPARFSGSGSGTEFTLTISSLQSEDFAVYYCQQYSTWPITFGQGTKVEIK
notes: tested with human Fc
B2: MIAB1 (antibody, V domains shown)
VH: EVQLLESGGGLVQPGGSLRLSCAASGFTFDDYAMHWVRQAPGKGLEWVASITSSSAFIDYADSVKGRFTISRDNSKNTLYLQMNSLRAEDTAVYYCAREPVDWNSYFDLWGQGTLVTVSS
VL: EIVMTQSPATLSVSPGERATLSCRASQGISNSYLAWYQQKPGQAPRLLIYGASTRATGIPARFSGSGSGTEFTLTISSLQSEDFAVYYCQQYYTYPPTFGQGTKVEIK
notes: tested with human Fc
B3: MIAB25 (antibody, V domains shown)
VH: B2 VH with T28I, P100R, N104F
VL: B1 VL with N30S, K32N, A34V, A50D, T93H, I96P
notes: tested with human Fc
B4: MIAB208 (antibody, V domains shown)
VH: B2 VH with P100R
VL: B1 VL with N30Y, N31S, K32N, A50D, S92H, T93I, I96P
notes: tested with human Fc
B5: MIAB125 (antibody, V domains shown)
VH: B1 VH with T31N, D32Y, M34I, A49D, S56T, S59Y, A98E, N106F
VL: B2 VL
notes: tested with human Fc
B6: MIAB2 (antibody, V domains shown)
VH: B2 VH with P100R
VL: B2 VL
notes: tested with human Fc
B7: MIAB122 (antibody, V domains shown)
VH: B2 VH with T28I, P100R, N104F
VL: B2 VL with S26C, Q27P, G28S, I29V, S32N, A35V, G51D, Y93S, T94H, Y95W
notes: tested with human Fc
B8: MIAB209 (antibody, V domains shown)
VH: B2 VH with P100R
VL: B2 VL with G28S, I29V, S30Y, N31S, S32N, G51R, Y93S, T94H, Y95W
notes: tested with human Fc
B9: MIAB121 (antibody, V domains shown)
VH: B2 VH with T28I, P100R, N104F
VL: B1 VL with S26C, Q27P, N30S, K32N, A34V, A50D, T93H, I96P
notes: tested with human Fc
B10: MIAB13 (antibody, V domains shown)
VH: B2 VH with P100R, D102L
VL: B1 VL with S28N, K32N, A50D, S52T, S92Y, T93H, I96Q
notes: tested with human Fc
B11: MIAB12 (antibody, V domains shown)
VH: B2 VH with P100R
VL: B2 VL with S26C, Q27P
notes: tested with human Fc
B12: MIAB206 (antibody, V domains shown)
VH: B2 VH with P100R, N104Y
VL: B1 VL with N30Y, N31S, K32N, A50R, S92H, T93I, I96P
notes: tested with human Fc
B13: MIAB205 (antibody, V domains shown)
VH: B2 VH with P100R, N104F
VL: B1 VL with N30Y, N31S, K32N, A50R, S92H, T93I, I96P
notes: tested with human Fc
B14: MIAB123 (antibody, V domains shown)
VH: B2 VH with T28I, P100R, N104F
VL: B2 VL with G28S, I29V, S32N, A35V, G51D, Y93S, T94H, Y95W
notes: tested with human Fc
B15: MIAB207 (antibody, V domains shown)
VH: B2 VH with P100R
VL: B1 VL with N30Y, N31S, K32N, A34V, A50R, S92H, T93I, I96P
notes: tested with human Fc
B16: MIAB26 (antibody, V domains shown)
VH: B2 VH with P100R
VL: B1 VL with N30Y, N31S, K32N, A50R, S92H, T93I, I96P
notes: tested with human Fc
B17: MIAB169 (antibody, V domains shown)
VH: EVQLLESGGGLVQPGGSLRLSCAASGFTFSDFWMHWVRQAPGKGLEWISYISGDSGYTNYADSVKGRFTISRDNSKNTLYLQMNSLRAEDTAVYYCARDRPYYYIMDVWGKGTTVTVSS
VL: DIQMTQSPSSLSASVGDRVTITCRASQSVSRSLAWYQQKPGKAPKLLIYAASSLQSGVPSRFSGSGSGTDFTLTISSLQPEDFATYYCQQYKSYPVTFGQGTKVEIK
notes: tested with human Fc; also called MIAB169-CHO; MIAB169-HEK
B18: PMAB54 (bispecific antibody, human IgG1, kappa)
heavy: EVQLVQSGAEVKKPGASVKVSCKASGYSFTSYYMHWVRQAPGQGLEWMGIINPSGGSTSYAQKFQGRVTMTRDTSTSTVYMELSSLRSEDTAVYYCASGWVYWGQGTLVTVSSASTKGPSVFPLAPSSKSTSGGTAALGCLVKDYFPEPVTVSWNSGALTSGVHTFPAVLQSSGLYSLSSVVTVPSSSLGTQTYICNVNHKPSNTKVDKKVEPKSCDKTHTCPPCPAPEAAGAPSVFLFPPKPKDTLMISRTPEVTCVVVDVSHEDPEVKFNWYVDGVEVHNAKTKPREEQYNSTYRVVSVLTVLHQDWLNGKEYKCKVSNKALPAPIEKTISKAKGQPREPQVYTLPPSREEMTKNQVSLTCLVKGFYPSDIAVEWESNGQPENNYKTTPPVLDSDGSFFLYSKLTVDKSRWQQGNVFSCSVMHEALHNHYTQKSLSLSPGGGGGSGGGGSGGGGSEVQLLESGGGLVQPGGSLRLSCAASGFTFSSYWMHWVRQAPGKGLEWVSYISGSGGYTNYADSVKGRFTISRDNSKNTLYLQMNSLRAEDTAVYYCARDRPYYYDIDVWGKGTTVTVSSGGGGSGGGGSGGGGSGGGGSDIQMTQSPSSLSASVGDRVTITCRASQSISSSLAWYQQKPGKAPKLLIYAASSLQSGVPSRFSGSGSGTDFTLTISSLQPEDFATYYCQQYKSYPVTFGQGTKVEIK
light: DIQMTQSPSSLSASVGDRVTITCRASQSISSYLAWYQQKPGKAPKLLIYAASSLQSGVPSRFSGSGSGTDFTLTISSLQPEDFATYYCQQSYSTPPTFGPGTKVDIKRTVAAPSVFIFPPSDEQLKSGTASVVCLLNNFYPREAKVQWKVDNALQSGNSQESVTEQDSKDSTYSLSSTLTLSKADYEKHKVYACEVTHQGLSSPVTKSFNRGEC
B19: PMAB55 (bispecific antibody, human IgG1, kappa)
heavy: B18 heavy with I563L
light: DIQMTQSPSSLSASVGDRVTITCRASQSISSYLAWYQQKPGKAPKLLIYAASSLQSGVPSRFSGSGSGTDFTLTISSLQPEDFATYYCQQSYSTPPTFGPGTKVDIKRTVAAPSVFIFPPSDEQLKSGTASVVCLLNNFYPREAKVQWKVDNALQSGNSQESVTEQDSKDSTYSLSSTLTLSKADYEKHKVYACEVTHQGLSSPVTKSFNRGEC
B20: PMAB57 (bispecific antibody, human IgG1, kappa)
heavy: QVQLVQSGAEVKKPGASVKVSCKASGYSFTTYYMHWVRQAPGQGLEWMGIIAPSGGSTSYAQKFQGRVTMTRDTSTSTVYMELSSLRSEDTAVYYCASGWVYWGQGTLVTVSSASTKGPSVFPLAPSSKSTSGGTAALGCLVKDYFPEPVTVSWNSGALTSGVHTFPAVLQSSGLYSLSSVVTVPSSSLGTQTYICNVNHKPSNTKVDKKVEPKSCDKTHTCPPCPAPEAAGAPSVFLFPPKPKDTLMISRTPEVTCVVVDVSHEDPEVKFNWYVDGVEVHNAKTKPREEQYNSTYRVVSVLTVLHQDWLNGKEYKCKVSNKALPAPIEKTISKAKGQPREPQVYTLPPSREEMTKNQVSLTCLVKGFYPSDIAVEWESNGQPENNYKTTPPVLDSDGSFFLYSKLTVDKSRWQQGNVFSCSVMHEALHNHYTQKSLSLSPGGGGGSGGGGSGGGGSEVQLLESGGGLVQPGGSLRLSCAASGFTFSDFWMHWVRQAPGKGLEWISYISGDSGYTNYADSVKGRFTISRDNSKNTLYLQMNSLRAEDTAVYYCARDRPYYYYMDVWGKGTTVTVSSGGGGSGGGGSGGGGSGGGGSDIQMTQSPSSLSASVGDRVTITCRASQSVSRSLAWYQQKPGKAPKLLIYAASSLQSGVPSRFSGSGSGTDFTLTISSLQPEDFATYYCQQYKSYPVTFGQGTKVEIK
light: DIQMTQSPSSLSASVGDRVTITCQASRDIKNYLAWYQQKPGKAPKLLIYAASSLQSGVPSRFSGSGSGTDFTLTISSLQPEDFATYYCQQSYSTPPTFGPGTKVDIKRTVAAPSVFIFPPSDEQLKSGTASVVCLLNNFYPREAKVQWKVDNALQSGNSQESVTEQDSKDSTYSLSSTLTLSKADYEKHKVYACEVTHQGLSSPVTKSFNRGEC

Assays:
cyno MAdCAM [1] = biological target: T3, cyno MAdCAM (cynomolgus); experiment: BLI (Octet), binder on anti-human Fc tips
T3 construct: also called cynomolgus MAdCAM

human MAdCAM [2] = biological target: T1, human MAdCAM; experiment: BLI (Octet), binder on anti-human Fc tips
mouse MAdCAM [3] = biological target: T2, mouse MAdCAM; experiment: BLI (Octet), binder on anti-human Fc tips
cyno MAdCAM [4] = biological target: T3, cyno MAdCAM; experiment: BLI (Octet)
human MAdCAM [5] = biological target: T1, human MAdCAM; experiment: BLI (Octet)
mouse MAdCAM [6] = biological target: T2, mouse MAdCAM; experiment: BLI (Octet)

Row | Binder | Kd (cyno MAdCAM [1]) | Kd (human MAdCAM [2]) | Kd (mouse MAdCAM [3]) | further results
1 | B1 | 11.5 nM |  |  | 
2 | B2 | 26.5 nM | 38.4 nM | 184 nM | 
3 | B3 | 60.8 nM | 46.9 nM | 131 nM | 
4 | B4 | 142 nM | 20.2 nM | 75.1 nM | 
5 | B5 | 0.9 nM |  |  | 
6 | B6 | 18.8 nM | 23.2 nM | 147 nM | 
7 | B7 | 68.5 nM | 48.2 nM | 130 nM | 
8 | B8 | 99 nM | 61.1 nM | 35.2 nM | 
9 | B9 | 92 nM | 50.4 nM | 117 nM | 
10 | B10 | 33.4 nM | 45.9 nM | 6.6 nM | 
11 | B11 | 19.5 nM | 19.3 nM | 77.5 nM | 
12 | B12 | 89.5 nM | 74.3 nM | 7.6 nM | 
13 | B13 | 117 nM | 56.3 nM | 42.2 nM | 
14 | B14 | 77.9 nM | 39.7 nM | 164 nM | 
15 | B15 | 73.7 nM | 83.5 nM | 24 nM | 
16 | B16 | 78.5 nM | 49.1 nM | 9.9 nM | 
17 | B17 | 153 nM | 266 nM and 340 nM |  | fold lower affinity than parent PRNT1 (human MAdCAM [2]): 10 fold; koff (human MAdCAM [2]): 0.0738 s⁻¹; kon (human MAdCAM [2]): 278000 M⁻¹ s⁻¹
18 | B18 |  |  |  | Kd (cyno MAdCAM [4]): 158 nM; koff (cyno MAdCAM [4]): 0.0114 s⁻¹; kon (cyno MAdCAM [4]): 71900 M⁻¹ s⁻¹; Kd (human MAdCAM [5]): 592 nM; koff (human MAdCAM [5]): 0.14 s⁻¹; kon (human MAdCAM [5]): 236000 M⁻¹ s⁻¹; Kd (mouse MAdCAM [6]): 248 nM; koff (mouse MAdCAM [6]): 0.00138 s⁻¹; kon (mouse MAdCAM [6]): 5570 M⁻¹ s⁻¹
19 | B19 |  |  |  | Kd (cyno MAdCAM [4]): 44.3 nM; koff (cyno MAdCAM [4]): 0.00924 s⁻¹; kon (cyno MAdCAM [4]): 209000 M⁻¹ s⁻¹; Kd (human MAdCAM [5]): 47.6 nM; koff (human MAdCAM [5]): 0.00163 s⁻¹; kon (human MAdCAM [5]): 34300 M⁻¹ s⁻¹; Kd (mouse MAdCAM [6]): 59.5 nM; koff (mouse MAdCAM [6]): 0.00131 s⁻¹; kon (mouse MAdCAM [6]): 22000 M⁻¹ s⁻¹
20 | B20 |  |  |  | Kd (cyno MAdCAM [4]): 49.9 nM; koff (cyno MAdCAM [4]): 0.0153 s⁻¹; kon (cyno MAdCAM [4]): 306000 M⁻¹ s⁻¹; response (cyno MAdCAM [4]): 0.169; Kd (human MAdCAM [5]): 122 nM; koff (human MAdCAM [5]): 0.0389 s⁻¹; kon (human MAdCAM [5]): 320000 M⁻¹ s⁻¹; response (human MAdCAM [5]): 0.18; Kd (mouse MAdCAM [6]): 205 nM; koff (mouse MAdCAM [6]): 0.0558 s⁻¹; kon (mouse MAdCAM [6]): 272000 M⁻¹ s⁻¹
